Substitutions are numbered along the chain they refer to.

One series has as its target T1, xCas12i v6.1 (N243R,E336R,V880R).
T1 chain: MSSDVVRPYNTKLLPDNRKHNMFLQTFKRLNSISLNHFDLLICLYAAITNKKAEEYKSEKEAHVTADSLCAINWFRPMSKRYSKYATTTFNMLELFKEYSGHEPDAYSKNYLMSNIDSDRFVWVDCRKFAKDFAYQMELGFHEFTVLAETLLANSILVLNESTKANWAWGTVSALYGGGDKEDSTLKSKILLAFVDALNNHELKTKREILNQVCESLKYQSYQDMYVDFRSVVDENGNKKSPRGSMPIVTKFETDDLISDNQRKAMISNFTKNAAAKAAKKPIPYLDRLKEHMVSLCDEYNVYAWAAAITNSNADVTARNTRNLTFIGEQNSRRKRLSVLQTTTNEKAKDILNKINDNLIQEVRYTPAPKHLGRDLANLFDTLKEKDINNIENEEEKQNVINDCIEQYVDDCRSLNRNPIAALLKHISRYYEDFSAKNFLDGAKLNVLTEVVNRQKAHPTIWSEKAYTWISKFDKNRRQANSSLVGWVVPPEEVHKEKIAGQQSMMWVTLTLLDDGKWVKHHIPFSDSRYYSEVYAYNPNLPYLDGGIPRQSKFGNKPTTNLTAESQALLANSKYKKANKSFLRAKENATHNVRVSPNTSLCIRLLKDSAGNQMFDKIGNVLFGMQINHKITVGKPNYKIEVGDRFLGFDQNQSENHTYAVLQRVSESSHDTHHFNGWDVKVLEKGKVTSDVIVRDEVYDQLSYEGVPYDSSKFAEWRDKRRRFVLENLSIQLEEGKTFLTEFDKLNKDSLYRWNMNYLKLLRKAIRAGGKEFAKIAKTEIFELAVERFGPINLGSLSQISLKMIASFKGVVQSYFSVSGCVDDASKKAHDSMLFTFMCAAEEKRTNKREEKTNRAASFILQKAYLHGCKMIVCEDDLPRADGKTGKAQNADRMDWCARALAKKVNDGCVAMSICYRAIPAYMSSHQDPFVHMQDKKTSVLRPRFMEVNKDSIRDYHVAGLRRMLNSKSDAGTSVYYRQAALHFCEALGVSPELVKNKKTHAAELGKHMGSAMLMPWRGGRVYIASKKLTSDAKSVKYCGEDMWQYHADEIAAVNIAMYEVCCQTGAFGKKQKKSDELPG
The series can be described thus: cell_activity; PAM TTTG; on-target. The settings on record: tags: NLS.

The target in the next series is T2, hfCas12Max (v6.3) (N243R,E336R,D892R).
T2 chain: T1 chain with R880V, D892R
The series can be described thus: cell_activity; PAM TTTG; on-target. The conditions noted are these: tags: NLS.

B1: TTR.2 crRNA ; TTR ON.1 (ssRNA ; dsDNA)
RNA: AUGACUCAGAAAUGUGUCCCCAGUUGACACUAGAAGGGAUAUACAAAGUGGA
DNA 1: TTTGTAGAAGGGATATACAAAGTGGA
DNA 2: TCCACTTTGTATATCCCTTCTACAAA
For B1, the activity was found to be 75.7% in the series with xCas12i v6.1 and 77.7% with hfCas12Max (v6.3).

These data come from patent publication US20250283063, “NOVEL CRISPR-CAS12I SYSTEMS AND USES THEREOF” (HUIDAGENE THERAPEUTICS (SINGAPORE) PTE. LTD., published 2025).
